Like-named read-outs stand apart in the source and are kept apart here. Where a SMILES comes first, the peptide text is derived from it. Bridges are numbered along the chain shown (N, C = ends). [ ]: non-standard residue; d: D form. Trp(6-Cl) = N[C@@H](Cc1c[nH]c2cc(Cl)ccc12)C(=O)O; dTrp(6-Cl) = N[C@H](Cc1c[nH]c2cc(Cl)ccc12)C(=O)O; R8 = C=CCCCCCC[C@@](C)(N)C(=O)O; S5 = C=CCCC[C@](C)(N)C(=O)O
Experiments:
Mdm2 (1-125) [1] = biological target: T1, Mdm2 (1-125) (Homo sapiens, UniProt Q00987); assay: competitive fluorescence polarization/anisotropy, apparent Kd against Mdm2; format: binding
T1 construct: Mdm2 (1-125) and Mdm4 (1-125) were ligated into the GST fusion expression vector pGEX-6P-1; GST (N, cleaved yes); made in house; host or cells: E. coli BL21 DE3
Protocol: (§1) The cells expressing the GST fusion constructs were grown in LB medium at 37° C. to an OD600 of ˜0.6 and induction was started with 1 mM IPTG and carried out overnight at room temperature. Cells were harvested by centrifugation and the cell pellets were re-suspended in 50 mM Tris pH 8.0, 10% sucrose and were then sonicated. The sonicated sample was centrifuged for 60 mins at 17,000 g at 4° C. […] The column was then further washed by 6 volumes of wash buffer. Mdm2 and Mdm4 were then purified from the column by cleavage with Precission (GE Lifesciences) protease. 10 units of precission protease, in one column volume of PBS with 1 mM DTT buffer, were injected onto the column. The cleavage reaction was allowed to proceed overnight at 4° C. The cleaved protein was then eluted of the column with wash buffer. Protein fractions were analyzed with SDS page gel and concentrated using a Centricon (3.5 kDa MWCO) concentrator, Millipore. Mdm2 and Mdm4 protein samples were then dialyzed into a buffer solution containing 20 mM Bis-Tris, pH 6.5, 0.05M NaCl with 1 mM DTT and loaded onto a monoS column pre-equilibrated in buffer A (20 mM Bis-Tris, pH 6.5, 1 mM DTT). The column was then washed in 6 column volumes of buffer A and bound protein was eluted with a linear gradient of 1M NaCL over 25 column volumes. Protein fractions were analyzed with SDS page gel and concentrated using a Centricon (3.5 kDa MWCO) concentrator from Millipore.
(§2) Apparent Kd values were determined for a variety of molecules via competitive fluorescence anisotropy experiments. […] The competing molecules were then titrated against complex of the FAM labelled peptide and protein. Apparent Kd values were determined by fitting the experimental data to the equations shown below:
(§3) [L]st and [L]t denote labelled ligand and total unlabelled ligand input concentrations, respectively. Kd2 is the dissociation constant of the interaction between the unlabelled ligand and the protein. In all competitive types of experiments, it is assumed that [P]t>[L]st, otherwise considerable amounts of free labelled ligand would always be present and would interfere with measurements. […] The FAM-labelled peptide were dissolved in DMSO at 1 mM and diluted into experimental buffer. Readings were carried out with a Envision Multilabel Reader (PerkinElmer). […] All titrations were carried out in triplicate. Curve-fitting was carried out using Prism 4.0 (GraphPad).

Mdm4 (1-125) [2] = biological target: T2, Mdm4 (1-125) (Homo sapiens, UniProt O15151); assay: competitive fluorescence polarization/anisotropy, apparent Kd against Mdm4; format: binding
T2 construct: Mdm4 (1-125) were ligated into the GST fusion expression vector pGEX-6P-1; GST (N, cleaved yes); made in house; host or cells: E. coli BL21 DE3
T2 sequence (O15151 1-125): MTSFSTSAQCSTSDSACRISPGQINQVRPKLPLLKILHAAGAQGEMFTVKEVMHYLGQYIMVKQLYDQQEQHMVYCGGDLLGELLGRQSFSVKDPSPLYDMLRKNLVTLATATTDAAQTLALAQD
Protocol: as §1, §2, §3

[3] = test system: p53 responsive LacZ reporter gene in T22 cell line; assay: T22 p53 β-galactosidase based reporter assay; format: cell-based, murine; details: 18 hours, DMEM with 10% FBS
Protocol: T22 cells, which were stably transfected with a p53 responsive […] reporter, were seeded into 96-well plate at a cell density of 8000 cells per well. […] Measurements were carried out using a Safire II multiplate reader (TECAN). Experiments were carried out independently twice.

p53 null thymocytes = assay: cell viability in mouse thymocytes, p53 null; format: cell-based, mice; details: high doses, 24 hours, annexin V/PI
Mdm4 (1-125) [4] = biological target: T3, Mdm4 (1-125) (human, UniProt O15151 1-125); assay: apparent Kd, competitive fluorescence polarization; displacement of FAM-…-NH2 from Mdm4 (1-125)
T3 construct: range 1-125; also called MDMX; Hdm4
T3 sequence (looked up): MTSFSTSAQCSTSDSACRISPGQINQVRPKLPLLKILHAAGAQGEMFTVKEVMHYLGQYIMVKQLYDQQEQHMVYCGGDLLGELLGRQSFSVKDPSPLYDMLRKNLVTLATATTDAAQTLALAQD

Mdm2 (1-125) [5] = biological target: T4, Mdm2 (1-125) (human, UniProt Q00987 1-125); assay: apparent Kd, competitive fluorescence polarization; displacement of FAM-…-NH2 from Mdm2 (1-125)
T4 construct: range 1-125; also called Hdm2

Mdm2 (1-125) [6] = biological target: T4, Mdm2 (1-125); assay: as above; remark: listed apart in the source
Mdm4 (1-125) [7] = biological target: T3, Mdm4 (1-125); assay: apparent Kd, competitive fluorescence polarization; displacement of FAM-…-NH2 from Mdm4 (1-125); remark: listed apart in the source

T4 sequence (Q00987 1-125 limits assumed): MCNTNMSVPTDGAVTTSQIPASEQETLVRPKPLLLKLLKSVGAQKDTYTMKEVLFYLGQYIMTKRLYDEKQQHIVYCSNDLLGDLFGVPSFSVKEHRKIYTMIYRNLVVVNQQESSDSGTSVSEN
T1 sequence (Q00987 1-125): as the sequence (Q00987 1-125 limits assumed) above

CC(=O)N[C@@H](CO)C(=O)N[C@@H](Cc1ccccc1)C(=O)N[C@]1(C)CCCCCCC=CCCC[C@@](C)(C(N)=O)NC(=O)[C@H](CC(C)C)NC(=O)[C@H](CC(C)C)NC(=O)[C@H](C)NC(=O)[C@H](Cc2c[nH]c3ccccc23)NC(=O)[C@H](Cc2ccc(O)cc2)NC(=O)[C@H](CCC(=O)O)NC1=O [sMTide-04, Ac-^2SFXEYWALLX^11-NH2] (Ac-SF[R8]EYWALL[S5]-NH2; staple 3-10)
preference between Mdm2 and Mdm4 in binding (Mdm2 (1-125) [1]; comparison of apparent Kds): interacted more tightly with Mdm4 than with Mdm2

CC(=O)N[C@H](C(=O)N[C@@H](CO)C(=O)N[C@@H](Cc1ccccc1)C(=O)N[C@]1(C)CCCCCCC=CCCC[C@@](C)(C(N)=O)NC(=O)[C@H](CC(C)C)NC(=O)[C@H](CC(C)C)NC(=O)[C@H](C)NC(=O)[C@@H](Cc2c[nH]c3cc(Cl)ccc23)NC(=O)[C@H](Cc2ccc(O)cc2)NC(=O)[C@H](CCC(=O)O)NC1=O)[C@@H](C)O [sMTide-02B, Ac-^1TSFXEY(D-6-Cl)WALLX^11-NH2]
Mdm4 Kd (Mdm4 (1-125) [2]; apparent Kd, competitive fluorescence polarization, Mdm4 75 nM, FAM peptide 50 nM): attenuated | p53 transcriptional activity in T22 p53 reporter assay [3]: negligible activity

CC(=O)N[C@H](C(=O)N[C@@H](CO)C(=O)N[C@@H](Cc1ccccc1)C(=O)N[C@]1(C)CCCCCCC=CCCC[C@@](C)(C(N)=O)NC(=O)[C@H](CC(C)C)NC(=O)[C@H](CC(C)C)NC(=O)[C@H](Cc2ccccc2)NC(=O)[C@H](Cc2c[nH]c3ccccc23)NC(=O)[C@H](Cc2ccc(O)cc2)NC(=O)[C@H](CCC(=O)O)NC1=O)[C@@H](C)O [sMTide-07, Ac-^1TSFXEYWFLLX^11-NH2] (Ac-TSF[R8]EYWFLL[S5]-NH2; staple 4-11)
p53 transcriptional activity in T22 p53 reporter assay [3]: diminish the ability of sMTide-07 to induce p53, compared to sMTide-06

COc1ccc(C2=N[C@@H](c3ccc(Cl)cc3)[C@@H](c3ccc(Cl)cc3)N2C(=O)N2CCNC(=O)C2)c(OC(C)C)c1 [nutlin, reference compound]
apoptosis in p53 null thymocytes (p53 null thymocytes): caused apoptosis in p53 null thymocytes

CC(=O)N[C@H](C(=O)N[C@@H](CO)C(=O)N[C@@H](Cc1ccccc1)C(=O)N[C@]1(C)CCCCCCC=CCCC[C@@](C)(C(N)=O)NC(=O)[C@H](CC(C)C)NC(=O)[C@H](CC(C)C)NC(=O)[C@H](CC(N)=O)NC(=O)[C@H](Cc2c[nH]c3ccccc23)NC(=O)[C@H](Cc2ccc(O)cc2)NC(=O)[C@H](CCC(=O)O)NC1=O)[C@@H](C)O [sMTide-01, Ac-^1TSFXEYWNLLX^11-NH2] (Ac-TSF[R8]EYWNLL[S5]-NH2; staple 4-11)
increase in Kd against Mdm2 in comparison to unstapled counterpart (Mdm2 (1-125) [1]; stapled vs unstapled peptide): approximately 2 fold | increase in Kd against Mdm4 in comparison to unstapled counterpart (Mdm4 (1-125) [2]; stapled vs unstapled peptide): 4 fold | p53 transcriptional activity in T22 p53 reporter assay [3]: little activity

B1: sMTide-02B (peptide)
peptide: Ac-TSF[R8]EY[dTrp(6-Cl)]ALL[S5]-NH2
modifications: staple 4-11
notes: also called Ac-TSFXEY(D-6-Cl)WALLX-NH2; D-isomer
Kd (Mdm4 (1-125) [4]): 2160 nM

Ac-TSFAEYWNLLS-NH2 (Linear phage-derived peptide) [MTide-01]
Kd (Mdm2 (1-125) [5]): 46.3 nM | Kd (Mdm4 (1-125) [4]): 33.2 nM

B2: sMTide-02A (peptide)
peptide: Ac-TSF[R8]EY[Trp(6-Cl)]ALL[S5]-NH2
modifications: staple 4-11
notes: also called Ac-TSFXEY(L-6-Cl)WALLX-NH2; L-isomer
Kd (Mdm4 (1-125) [4]): 1360 nM

B3: sMTide-05 (peptide)
peptide: Ac-TSF[R8]EYWKLL[S5]-NH2
modifications: staple 4-11
SMILES: CC(=O)N[C@H](C(=O)N[C@@H](CO)C(=O)N[C@@H](Cc1ccccc1)C(=O)N[C@]1(C)CCCCCCC=CCCC[C@@](C)(C(N)=O)NC(=O)[C@H](CC(C)C)NC(=O)[C@H](CC(C)C)NC(=O)[C@H](CCCCN)NC(=O)[C@H](Cc2c[nH]c3ccccc23)NC(=O)[C@H](Cc2ccc(O)cc2)NC(=O)[C@H](CCC(=O)O)NC1=O)[C@@H](C)O
notes: also called Ac-TSFXEYWKLLX-NH2
Kd (Mdm2 (1-125) [6]): 26.3 nM | Kd (Mdm4 (1-125) [7]): 29.9 nM

B4: sMTide-07 (peptide)
peptide: Ac-TSF[R8]EYWFLL[S5]-NH2
modifications: staple 4-11
SMILES: CC(=O)N[C@H](C(=O)N[C@@H](CO)C(=O)N[C@@H](Cc1ccccc1)C(=O)N[C@]1(C)CCCCCCC=CCCC[C@@](C)(C(N)=O)NC(=O)[C@H](CC(C)C)NC(=O)[C@H](CC(C)C)NC(=O)[C@H](Cc2ccccc2)NC(=O)[C@H](Cc2c[nH]c3ccccc23)NC(=O)[C@H](Cc2ccc(O)cc2)NC(=O)[C@H](CCC(=O)O)NC1=O)[C@@H](C)O
notes: also called Ac-TSFXEYWFLLX-NH2
Kd (Mdm2 (1-125) [6]): 175 nM | Kd (Mdm4 (1-125) [7]): 394 nM

B5: sMTide-06 (peptide)
peptide: Ac-TSF[R8]EYWYLL[S5]-NH2
modifications: staple 4-11
SMILES: CC(=O)N[C@H](C(=O)N[C@@H](CO)C(=O)N[C@@H](Cc1ccccc1)C(=O)N[C@]1(C)CCCCCCC=CCCC[C@@](C)(C(N)=O)NC(=O)[C@H](CC(C)C)NC(=O)[C@H](CC(C)C)NC(=O)[C@H](Cc2ccc(O)cc2)NC(=O)[C@H](Cc2c[nH]c3ccccc23)NC(=O)[C@H](Cc2ccc(O)cc2)NC(=O)[C@H](CCC(=O)O)NC1=O)[C@@H](C)O
notes: also called Ac-TSFXEYWYLLX-NH2
Kd (Mdm2 (1-125) [6]): 128 nM | Kd (Mdm4 (1-125) [7]): 328 nM

B6: sMTide-04 (peptide)
peptide: Ac-SF[R8]EYWALL[S5]-NH2
modifications: staple 3-10
SMILES: CC(=O)N[C@@H](CO)C(=O)N[C@@H](Cc1ccccc1)C(=O)N[C@]1(C)CCCCCCC=CCCC[C@@](C)(C(N)=O)NC(=O)[C@H](CC(C)C)NC(=O)[C@H](CC(C)C)NC(=O)[C@H](C)NC(=O)[C@H](Cc2c[nH]c3ccccc23)NC(=O)[C@H](Cc2ccc(O)cc2)NC(=O)[C@H](CCC(=O)O)NC1=O
notes: also called Ac-SFXEYWALLX-NH2
Kd (Mdm2 (1-125) [6]): 104 nM | Kd (Mdm4 (1-125) [7]): 63 nM

Reference: patent US20150246946A1, “PEPTIDES AND METHODS FOR TREATING CANCER” (AGENCY FOR SCIENCE, TECHNOLOGY AND RESEARCH, priority 2012, published 2015)
